Data: article doi:10.1101/2021.12.22.473891 (bioRxiv, 2021)

Target: recombinant human Top2a ΔC (1-1217), lacking the unstructured C-terminal domain (human, UniProt P11388 1-1217)
Assay: native gel or EMSA

recombinant human Top2a ΔC (1-1217), lacking the unstructured C-terminal domain, sequence (P11388 1-1217, stated change not applied): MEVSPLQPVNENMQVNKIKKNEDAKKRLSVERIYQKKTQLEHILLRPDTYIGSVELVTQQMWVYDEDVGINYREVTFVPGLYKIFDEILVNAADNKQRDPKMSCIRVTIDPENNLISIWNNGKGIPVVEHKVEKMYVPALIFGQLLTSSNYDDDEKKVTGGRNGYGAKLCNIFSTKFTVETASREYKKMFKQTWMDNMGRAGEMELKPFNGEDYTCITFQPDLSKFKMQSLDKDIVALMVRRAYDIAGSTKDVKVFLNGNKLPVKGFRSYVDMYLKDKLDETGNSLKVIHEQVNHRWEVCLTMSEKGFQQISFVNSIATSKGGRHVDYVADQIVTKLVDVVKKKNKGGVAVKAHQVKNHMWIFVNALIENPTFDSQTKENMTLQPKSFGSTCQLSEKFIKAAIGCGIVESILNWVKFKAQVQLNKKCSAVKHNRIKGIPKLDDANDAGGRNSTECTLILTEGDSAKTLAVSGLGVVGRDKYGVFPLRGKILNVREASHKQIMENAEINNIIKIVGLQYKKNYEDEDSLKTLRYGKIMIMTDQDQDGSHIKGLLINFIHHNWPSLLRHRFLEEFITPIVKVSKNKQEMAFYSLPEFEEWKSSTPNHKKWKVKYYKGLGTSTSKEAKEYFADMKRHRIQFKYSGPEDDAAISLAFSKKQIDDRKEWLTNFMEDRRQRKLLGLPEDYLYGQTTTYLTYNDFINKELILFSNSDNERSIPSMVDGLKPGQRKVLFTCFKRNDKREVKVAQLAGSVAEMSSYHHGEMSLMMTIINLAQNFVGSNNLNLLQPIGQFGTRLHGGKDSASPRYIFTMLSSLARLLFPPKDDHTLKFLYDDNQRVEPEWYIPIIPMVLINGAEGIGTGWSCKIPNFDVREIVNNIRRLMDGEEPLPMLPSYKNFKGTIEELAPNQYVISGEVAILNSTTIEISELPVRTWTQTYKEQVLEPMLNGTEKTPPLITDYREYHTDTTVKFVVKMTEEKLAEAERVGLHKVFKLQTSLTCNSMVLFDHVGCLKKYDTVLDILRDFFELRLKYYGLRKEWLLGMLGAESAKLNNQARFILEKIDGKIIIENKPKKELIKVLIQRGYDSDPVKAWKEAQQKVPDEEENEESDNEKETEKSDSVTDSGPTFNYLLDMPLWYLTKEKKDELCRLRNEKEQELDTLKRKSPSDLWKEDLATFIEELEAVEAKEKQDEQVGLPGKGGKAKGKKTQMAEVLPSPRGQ

B1: human dock II domain, full-length variant (RPA1^1060-1155) with C-terminal His-MBP-tag (domain or fragment)
chain: ADPKKALHHFRAIKKWQSKHPNTLLRRGAFLSYSQKIQEAVKALKLESENRNGRSPGTQEMLRMWYELDEESRRKYQKKAAACPDPSLSVWRPDIY
binding result: binds
